The target in assay [1] is T1, IRE1α lumenal domain (IRE1αLD) (human, UniProt O75460 24-443).
T1 sequence: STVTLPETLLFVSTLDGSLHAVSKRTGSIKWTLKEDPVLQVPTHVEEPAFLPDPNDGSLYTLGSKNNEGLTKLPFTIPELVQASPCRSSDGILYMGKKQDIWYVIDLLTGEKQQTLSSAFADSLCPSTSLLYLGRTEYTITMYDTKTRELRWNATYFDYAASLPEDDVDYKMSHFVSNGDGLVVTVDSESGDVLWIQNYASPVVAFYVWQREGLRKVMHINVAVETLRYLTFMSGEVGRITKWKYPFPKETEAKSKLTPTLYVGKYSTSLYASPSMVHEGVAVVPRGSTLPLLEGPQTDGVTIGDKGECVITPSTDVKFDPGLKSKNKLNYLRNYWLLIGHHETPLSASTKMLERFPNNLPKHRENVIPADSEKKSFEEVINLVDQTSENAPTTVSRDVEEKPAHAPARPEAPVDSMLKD
The experiment in a line: […].

Assay [2] concerns the target T1, IRE1α lumenal domain (IRE1αLD). The experiment in a line: fluorescence polarisation. A general note: In fluorescence polarisation assays a small probe gives low polarisation when free and higher when bound to something large.
Assay [3] shares this target. Description: […]. This is another data set of the same source.

Ends that are not written are not given here.

For the molecule IYGWYRVHFGVLDEQLHR [CTxA1_(I124-R141) peptide], binding in assay [1] was characterised by a dissociation constant (Kd) of 44 ± 5 µM. As for IYGWYRVHF [CTxA1_(I124-F132) peptide], the binding result in assay [1] is listed as “binds”. Consider YWLLIGHHETPL (not fully specified (N-terminus)) [IRE1α_(Y358-L369) peptide], for which binding in assay [2] was put at a Kd of 190 ± 20 µM. Further, the affinity in assay [3], expressed as Ki, was 220 ± 30 µM. On to IHFYSKWYIR [SARS-CoV2 ORF8 peptide 39-48], for which, in assay [1], the binding result is reported as “binds”. The same measure, in the same setting: to IYGWYRVNF [heat-labile enterotoxin (LTx) peptide 124-132] belongs “binds”.

The term Kd denotes the equilibrium constant for the complex coming apart. By Ki is commonly meant a measure of affinity in units of concentration, obtained from inhibition or displacement. High values mean weaker binding, low ones tighter binding.

The values are drawn from doi:10.1101/2023.06.20.545791 (bioRxiv, 2023).
